Measured values published in IntAct's records for PubMed 25601757.

What follows are substances tested against wt1_human WT1 (UniProt P19544).
wt1_human WT1, sequence (P19544 whole entry): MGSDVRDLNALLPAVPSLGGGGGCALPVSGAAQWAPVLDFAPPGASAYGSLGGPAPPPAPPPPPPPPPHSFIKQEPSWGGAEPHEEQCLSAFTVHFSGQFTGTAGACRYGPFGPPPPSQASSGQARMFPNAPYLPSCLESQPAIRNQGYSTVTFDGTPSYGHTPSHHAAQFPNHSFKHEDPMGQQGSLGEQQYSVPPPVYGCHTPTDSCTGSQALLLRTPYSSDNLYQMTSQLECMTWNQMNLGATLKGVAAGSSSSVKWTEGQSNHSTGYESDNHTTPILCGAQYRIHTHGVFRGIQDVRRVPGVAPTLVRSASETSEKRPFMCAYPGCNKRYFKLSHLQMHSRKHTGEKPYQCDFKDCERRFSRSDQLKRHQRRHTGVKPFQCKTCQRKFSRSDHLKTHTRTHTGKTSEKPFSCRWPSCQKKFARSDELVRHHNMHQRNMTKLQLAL

| Substance | effect of a mutation on the interaction |
| --- | --- |
| Methylcytosine dioxygenase TET2 (Homo sapiens), Q6N021 T1884A | disrupting interaction strength |
| Methylcytosine dioxygenase TET2 (Homo sapiens), Q6N021 A1505T | disrupting interaction strength |
| Methylcytosine dioxygenase TET2 (Homo sapiens), Q6N021 R1302G | disrupting interaction strength |
| Methylcytosine dioxygenase TET2 (Homo sapiens), Q6N021 F1368L | decreasing interaction strength |
| Methylcytosine dioxygenase TET2 (Homo sapiens), Q6N021 G1256D | disrupting interaction strength |

Continued, values first:

| effect of a mutation on the interaction | Substance |
| --- | --- |
| disrupting interaction strength | Methylcytosine dioxygenase TET2 (Homo sapiens), Q6N021 P1617H |
| with no effect | Methylcytosine dioxygenase TET2 (Homo sapiens), Q6N021 D1314G |
| decreasing interaction strength | Methylcytosine dioxygenase TET2 (Homo sapiens), Q6N021 L1340R |
| disrupting interaction strength | Methylcytosine dioxygenase TET2 (Homo sapiens), Q6N021 D1242V |
| disrupting interaction strength | Methylcytosine dioxygenase TET2 (Homo sapiens), Q6N021 G1861R |
